23 sequences from the DeepSol protein solubility set can be followed below.

The nature of this data set: soluble on expression in E. coli; label from the status in PepcDB or PDB records.
Regarding “MKDILGKTFECSCGKTHEVPDIEILETSIREAPDVFSDAFFIADLNTASLVDLPGKRSFVFNERRPLATMENV”, the “soluble on expression in E. coli” value is given as “not soluble”.

“MQVSIVNEHKYRELEPLNEMLVKRGGVKMIPEPKFVISGLVDNEEYVIKLRIDLADEFRYSYQNQQWTPFAPSTKNSKLSAITETEHRKETGATWNMRIVQFDKLLITREFNDIQRNVIHVEPNHKYIPVLTIQNVTTGKSTEFQFQQMEFIAVKSYQSARIRHTKRAPRKMNLAPGSSQKPQLIVPDILHSPTYGFTAAPPPFPFEYWLLYPQIQYQIQQLAYSLPMGPPMVPIHHIQCTEASQRVYAPEYGWNSILMPGAHKEQDDHYMFHHEIWAPQDHELEKLHVLTEQKNKPSETPQ”: the “soluble on expression in E. coli” value is given as “not soluble”.

In the case of “MFPIGEQPRILKDLAGINEDVQELAISGKTKNIELLGELKIRDLWIFTVNQTQFDKIMEYVNPEILYIDEMRVENLSKLQKMSNLRRLYLGWNPKNTDLWDLSYNNNLSYLLIQAFSKLEDLSPIKDGKKLEGLFLGGAIMKTLNVKTLDPIGDLVELNELTLMNIKVQDRSLEPLMNLKRLKKLNVSNQFPMEEYAKLSVVLQNTECEFFKPYVRMESTEGKDIMMIGRKRPFLNSKIDAEKIRKYEQEFKTVQEEFRDGMK”, the “soluble on expression in E. coli” value is on record as “not soluble”.

“SEWNLRRMESELRQINPDLLQPSKSFKKPSSGTITINVGGYLYAAQRHTLAKHPGSLLEEMVTGKKPVLHVDSMGNTFIDRDGPIFRHILNFLRLGELVLPEDFKETELLRREANFYRLSELAQALQDWEQQQATQREPAFLEVTDSHERSQGLRVYCSDNTFIEKVKNRLVQISKSRLDGFPEEFEVSSNIIQFRHFIKSEQGSRLVLKQDSTFLCTLECLKLETVMLALKGGFRLITSLDSSRGSVVQCEALHFVK”: the “soluble on expression in E. coli” value is “soluble”.

On to “MAGATDQRRQEVLRAIVADYIASQEPVGSKALLERHNLKVSSATIRNDMAVLESEGYIVQQHASSGRIPTEKAYRTFVDSINDIKPLSVAERRAILGFLERGVDLEDVLKRSVQLLSQLTRQAAVIQLPNLNVSRVKHCEVVLLSPVRLLLVLITDNGRVEQRNVEVDQICEPEHVAKMRDVLNRALDNKTLSDASASLAELAAGEILVDPDIQPMILRCATVLIETLVEQPNDRLILAGASNLTHIAREMPSSLPAMLEALEEQVVVLKLLTNVRDLGHVSVLIGEENEDEQLRGTSVVTTGYGAQGATLGGLGVVGPTFMDYSGTMSKVYAVAHYVSRVLSGG”, for which the “soluble on expression in E. coli” value was “not soluble”.

In the case of “MGSDKIHHHHHHMNIHVKECGDLEAPLLVFLHGGGVSGWMWSNQVDYFHHYHCIVPDLPHHGLSGRETSFTILNSAEALIRLIEKKAQGRDVIVIGFSLGAQILLQMISINPRLITKAIVNSALVRPIPIPEKLLELSVKSTFPLIKSRWFSRLQAKTLYIDDDLFETYYRESCQMTQDSLTQILKENVSFRLPENVHEISTRILTTVGAKEKRIMKTSATMITHAHPNSTGIIIPSVGHGIPLAKPDQFNQLVDQWLKEERLPHDVGLIEK”, the “soluble on expression in E. coli” value was “not soluble”.

“MSLKANFYKNRVCLNVLAGSVDNAADIYDAAEGHVLVGVLSKNYPDVDTAVEDMKKYSEVTNNAVSVGLGAGDPNQSMMVSLISQHVQPQHINQVFTGVATSRALAGQDKSIVNGLISPTGTVGMVKISTGPLSSRSEDAIVPVETAIAMLKDMGGSSVKYFPMGGLETREEFACVAKACADKDFWLEPTGGIDLENYEEIMQIALDAGVSKIIPHIYSSIIDKATGNTRPEDVKTLLDMTKKLLN”: the “soluble on expression in E. coli” value was “soluble”.

“MAHHHHHHMRAQSDLSPSSVSELRSKLKGVRVEVGSLVSFRDEPAFEMVMRLNKRHNGNLVSAVLSKGNAACGLGGDASGSGEGIGEGRVMADRSRHVEELRMVFIPKAYGAFLEDEMQKWLDPFRGRGEANRTKRKRDEVDDNEVTDIDSDVDTDECDDADSFRSV”: the “soluble on expression in E. coli” value is “soluble”.

Turning to “MYGVLVWPPEDLRRFMEELQAARGVRGFGPPHLNLRQPFDWPYEEEALRIALAGILRGHPPFRVRLGDWRFFPQGVVYLRAYGGGAFRRLYHALEPLAPPLKEIEGPSYIPHLTLALGLSPEEAKALAQSLPPPPRRSFLVREAALVRDEGEGLVEVARFPLGPSPER”, the “soluble on expression in E. coli” value is recorded as “soluble”.

Regarding “MGSDKIHHHHHHMLHPIILAGGVTQTSEWSTGVCHLALETAPGVPSRFEGVLDAMSGDVFADPVVVTTRDNMSLVERQIAARPAALIVEPETHKPAAALLSAVLSLRHMPGALVVVAPATANLADTRNLDKALCNAIPAAQRGEIVMFGQRTTRAYGGFGIMEVVTQPHENAPVAVSRVLASGRKVTLSHLLHGNHQLWGTGLYLARVDVLLAAFKSHASRLFLPVKNALLRAGTVDRTTLLDRATYRRVKAITFEKAVAEKIENICAIQLDPTWSALEEWDQDAAADSAVAQWDEDLAQERAGVLNARAAAPFPHSADMMAVYASLSKISAEDALSAHATEYDWGRLESLAMGPGFTLQRMSIAPGATLDLNAAPGGAEHWIVAQGSVLITIGDHVRLVWEGHSARIPAGRSRRIENPGSGTLVLVQLQVMPLSATGQPQSAASFSPAGVA”, the “soluble on expression in E. coli” value is reported as “not soluble”.

In the case of “VIHLDSKNFDSFLASHEIAVVDFWAEWCAPCLILAPIIEELAEDYPQVGFGKLNSDENPDIAARYGVMSLPTVIFFKDGEPVDEIIGAVPREEIEIRIKNLLGE”, the “soluble on expression in E. coli” value is on record as “soluble”.

Regarding “MGSDKIHHHHHHMLYLIGLGLSYKSDITVRGLEAIKKCSRVYLEHYTSILMAASQEELESYYGKEIILADRELVETGSKQILNNADKEDVAFLVVGDPFGATTHTDLVLRAKREAIPVEIIHNASVMNAVGACGLQLYNFGQTVSMVFFTDNWRPDSWYDKIWENRKIGLHTLVLLDIKVKEQSIENMARGRLIYEPPRYMSIAQCCEQLLEIEEKRGTKAYTPDTPAVAISRLGSSSQSFKSGTISELANYDSGEPLHSLVILGRQCHELELEYLLEFADDKEKFGKDVANDQEYFKPAAWVPPTEDDSDE”, the “soluble on expression in E. coli” value was “not soluble”.

For “MSLSILVTGATGTIGSLVTQGLASAGADVKAMVRQPGKRDFPAGVTEVVADLTDVSSMRVALSSVRTLFLLNAVTPDEVTQALIALNLAQEAGIERIVYLSVIHADTFTNVPHFTGKYTVERMIESLDIPATILRPAYFMQNDLMVQQTIQSYSVYPMPIGSAGVSMIDARDIADVAVAELLRRDEASSALDLVTLELVGPQALTGASVAQTWSSALDREIAYGGDDVAAFEGQLASYGPGWLAYDMRLMMAGIQKFGMQAAEGAVERLEAIIGHPLRSYEGFVREATAGEGHHHHHH”, the “soluble on expression in E. coli” value is given as “soluble”.

As to “MSCRFYQHKFPEVEDVVMVNVRSIQEMGAYVSLLEYNNIEGMIHLSELSRRRIRSINKLIRIGRNECVKVIRVDKEKGYIDLSKRRVSPEEAIKCEDKFTKSKTVYSILRHVAEVLEYTKDEQLESLFQRTAWVFDDKYKRPGYGAYDAFKHAVSDPSILDSLDLNEDEREVLINNINRRLTPQAVKIRADIEVACYGYEGIDAVKEALRAGLNCSTENMPIKINLIAPPRYVMTTTTLERTEGLSVLSQAMAVIKEKIEEKRGVFNVQMEPKVVTDTDETELARQMERLERENAEVDGDLEHHHHHH”, the “soluble on expression in E. coli” value was “soluble”.

Consider “MSFLNNDFGSPPATSSPPTTMPKLPTIQDMLNNIGASTVNLMQPNPYLMQNQIPLPVPNLPLNPFLHLNPAISQEIIQQFIAMSFNTPNVLASIANMGDDEGPSCNPKMRRGDLLKSVSMDSTEDPPSITLDNNGDMIVPNNDKEGWCRNKKYIEQTENGYMCTVCRKVYGRYNSVSYHVTIYHRNPPIKCNVPNCQFTTREARYIHFHKNYRHGIPLPESIDQGSRKCPHCRHVSKSPAMLEKHIRRHQIKDGLSNINEAIRERTSTICDEAMEIEPAETEVDPIETKPRSCTL”, for which the “soluble on expression in E. coli” value is “not soluble”.

“MKFNIRGENIEVTPALKEYVEKKLSKLERYFDTFPEIKVNLKVYSDKQRVEVTIPFTDLLLRAEETNSDMYAAIDLVVDKLERQIRKHKTKVNRKLREKGSMKTNFILPEAVAVLDEVEEDELELVRTKRFDLKPMDVEEAILQMDMLGHNFFVFTNADTNETNVVYGRKDGKYGLIETKLEHHHHHH”: the “soluble on expression in E. coli” value was “not soluble”.

As to “MSQTILFVCATGIATSTAVTEKVMEYCKEQGLNVNYSQTNVASLPGNTDGVALVVSTTKVPYELDVPVVNGLPIITGIGEEKVLAQIVSILKK”, the “soluble on expression in E. coli” value was “soluble”.

As to “GAMERKANYAVDAYFREALRVSEPKAPKAPRPPKQPIVQDFQFFPPRLFELLDQEIYYFRKTVGYKVPKNTELGSDATKVQREEQRKIDEAEPLTEEEIQEKENLLSQGFTAWTKRDFNQFIKANEKYGRDDIDNIAKDVEGKTPEEVIEYNAVFWERCTELQDIERIMGQIERGEGKIQRRLSIKKALDQKMSRYRAPFHQLRLQYGNNKGKNYTEIEDRFLVCMLHKLGFDKENVYEELRAAIRASPQFRFDWFIKSRTALELQRRCNTLITLIERENIELEEKERAEKKKKAPKGSVSAGS”, the “soluble on expression in E. coli” value was “soluble”.

As to “GETASSLWIDAAVAVSVPFQLNSVADRMNQGFSRLYQAYLLSRLRRIFLKKLNHLNNSPFSKSDLLSLKTFWDFDERITAPINGFKNAHEYYQKASSRQYLKNITTPTLIIHAQDDPFMTPDAIPASKELSSQTTLELSEYGGHVGFIAGTGKNSSQPVYWLEQRIPEFLLEYLS”, the “soluble on expression in E. coli” value was “not soluble”.

As for “MGHHHHHHSHENKKAKPVPWVEKYRPKCVDEVAFQEEVVAVLKKSLEGADLPNLLFYGPPGTGKTSTILAAARELFGPELFRLRVLELNASDERGIQVVREKVKNFAQLTVSGSRSDGKPCPPFKIVILDEADSMTSAAQAALRRTMEKESKTTRFCLICNYVSRIIEPLTSRCSKFRFKPLSDKIQQQRLLDIAKKENVKISDEGIAYLVKVSEGDLRKAITFLQSATRLTGGKEITEKVITDIAGVIPAEKIDGVFAACQSGSFDKLEAVVKDLIDEGHAATQLVNQLHDVVVENNLSDKQKSIITEKLAEVDKCLADGADEHLQLISLCATVMQQLSQNC”, the “soluble on expression in E. coli” value is “soluble”.

Take “MSLKKAIAYMRFSSPGQMSGDSLNRQRRLIAEWLKVNSDYYLDTITYEDLGLSAFKGKHAQSGAFSEFLDAIEHGYILPGTTLLVESLDRLSREKVGEAIERLKLILNHGIDVITLCDNTVYNIDSLNEPYSLIKAILIAQRANEESEIKSSRVKLSWKKKRQDALESGTIMTASCPRWLSLDDKRTAFVPDPDRVKTIELIFKLRMERRSLNAIAKYLNDHAVKNFSGKESAWGPSVIEKLLANKALIGICVPSYRARGKGISEIAGYYPRVISDDLFYAVQEIRLAPFGISNSEGHHHHHH”: the “soluble on expression in E. coli” value is reported as “soluble”.

With “MRVVRPEFRPAPGLDTDAMASRQRDIAAVADFADDHGLTPERIGLDEPPGEQAALGGATTSGEAAPVVVGVDQAFRDDEVSVSAAVAIRDGAVIERAAGNAPLDVPYVPGLLAFREGSAVIDALSSLSVEPDLLVVDGSGRIHYRQAGLATHVGVLFDVPAVGVAKSLLCGTPAAALADPLPAGTRVAIEADDSMDAPDGAVVGYALQSRQYPTPETRHINPLYVSPGHRVSAGTAADLVEATCTQYKLPAPTRLADQYAADLT”, the “soluble on expression in E. coli” value is reported as “not soluble”.

Take “MSLKGRVAVRTVDAIPQTFAINGIFRISRGSKTSAQVIAVSIAESGYIGRGECVPYARYGETIESVMDQIRSMTPAIEAGMDLSELQSAMAPGAARNAVDCALWDLRAQKTRQSLASVIELGHELQPVLTAFTISLDAPAAMGKAAAVHEHLPILKLKLGGDGDLERVRAVRAAAPHARLMVDANEAWSIDHLRAFAPEFAAMGVELIEQPLPADADDFLKSFNSPVPLAADESCRTLMSLSKIVGKYEIANIKLDKAGGLTEALSLQAAARASGLGTMVGCMVATSLSMAPGIILAQRADVVHLDGPLLLAEDRTPSLRYSGATLYPPEPEVWGGEGHHHHHH”: the “soluble on expression in E. coli” value is recorded as “soluble”.
